The text below walks through data of PMC9189065 (Cell, 2022).

For one assay, the target named is mouse METAP1(1-59) (mouse, UniProt Q8BP48 1-59). The experiment in a line: other fluorescence titration.
Another assay concerns the target mouse METAP1(1-79) (mouse, UniProt Q8BP48 1-79). In words: other fluorescence titration.
In assay [1] the target is zebrafish MBP-Metap1, full length (zebrafish, UniProt Q4QRK0 1-386). The experiment in a line: pull-down.

B1: human ZNG1 N-terminal peptide, synthetic (peptide)
chain: Ac-EEDPAEEDCPELVPIETTQSE-NH2
With B1, the Kd with mouse METAP1(1-59) and with mouse METAP1(1-79) was approximately 100 nM in each case. Besides, the “stoichiometry N” value in the assay with mouse METAP1(1-59) and in the assay with mouse METAP1(1-79) was 1 each time.

B2: zebrafish Zng1 N-terminal peptide, synthetic (peptide)
chain: Ac-MEDEDECPELVPIKEKPSG-NH2
Turning to B2, the Kd with mouse METAP1(1-59) and with mouse METAP1(1-79) was approximately 100 nM throughout. The “stoichiometry N” value with mouse METAP1(1-59) and in the assay with mouse METAP1(1-79) was 1 in each case.

B3: zebrafish Zng1, full length, purified (natural protein)
chain: not shown
For the molecule B3, in assay [1], the binding result was “binds”.

By Kd is commonly meant the concentration at which binding is half-saturated. For orientation: stoichiometry N means the number of molecules, sites or subunits per partner or assembly.
